Measurements taken from patent US20250026827A1 (Alector, published 2025).
Positions count from the first letter of the chain named.

T1: mouse SIRPα on cells (mouse, UniProt P97797 32-513)
T1 construct: whole, on cells
T1 sequence (looked up): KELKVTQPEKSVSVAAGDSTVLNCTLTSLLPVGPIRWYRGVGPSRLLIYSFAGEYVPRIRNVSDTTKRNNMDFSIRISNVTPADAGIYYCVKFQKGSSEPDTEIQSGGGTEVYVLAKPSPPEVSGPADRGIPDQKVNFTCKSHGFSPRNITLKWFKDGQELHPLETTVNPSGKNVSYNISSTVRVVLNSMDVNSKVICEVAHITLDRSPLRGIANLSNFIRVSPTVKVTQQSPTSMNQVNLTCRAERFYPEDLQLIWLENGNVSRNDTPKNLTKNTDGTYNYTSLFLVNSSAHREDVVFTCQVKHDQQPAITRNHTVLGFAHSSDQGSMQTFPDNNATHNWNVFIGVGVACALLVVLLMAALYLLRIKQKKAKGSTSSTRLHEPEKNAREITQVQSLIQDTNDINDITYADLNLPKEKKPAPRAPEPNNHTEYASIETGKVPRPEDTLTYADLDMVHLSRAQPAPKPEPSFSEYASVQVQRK

T2: mouse SIRPβ1 on CHO cells (mouse)
T2 construct: Whole entry
T2 chain: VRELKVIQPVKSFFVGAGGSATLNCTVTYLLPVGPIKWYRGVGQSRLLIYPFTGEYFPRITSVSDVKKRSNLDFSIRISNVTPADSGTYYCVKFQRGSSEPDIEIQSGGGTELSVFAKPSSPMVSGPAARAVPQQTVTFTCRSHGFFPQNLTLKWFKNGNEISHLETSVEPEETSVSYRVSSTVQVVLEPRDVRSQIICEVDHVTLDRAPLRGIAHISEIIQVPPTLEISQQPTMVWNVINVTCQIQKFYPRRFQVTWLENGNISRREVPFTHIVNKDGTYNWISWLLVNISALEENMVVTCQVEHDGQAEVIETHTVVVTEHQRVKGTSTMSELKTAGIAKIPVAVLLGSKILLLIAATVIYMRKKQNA

T3: mouse SIRPα D1-Fc (mouse, UniProt P97797 32-150, limits assumed)
T3 construct: domain: D1
T3 sequence (looked up): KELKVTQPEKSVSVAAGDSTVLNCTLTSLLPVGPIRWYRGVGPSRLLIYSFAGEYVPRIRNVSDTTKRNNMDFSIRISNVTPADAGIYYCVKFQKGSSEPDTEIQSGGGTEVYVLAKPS

B1: SB-40-18 Fab (Fab, V domains shown)
VH: QVQLVQSGAEVKKPGASVKVSCKASGYTFTSYYMAWVRQAPGQRLEWMGWINPAVGATIYSQKFQGRVTITRDTSASTAYMELSSLRSEDTAVYYCARDTGEYSYSPHGMDVWGQGTTVTVSS
VL: EIVLTQSPATLSLSPGERATLSCRASQSVSSYLAWYQQKPGQAPRLLIYDSSNRATGIPARFSGSGSGTDFTLTISSLEPEDFAVYYCQQRDEHPPWTFGGGTKVEIK
notes: Fab by papain digestion
B2: SB-40-21 Fab (Fab, V domains shown)
VH: QVQLVQSGAEVKKPGASVKVSCKASGYTFTSYYMVWVRQAPGQGLEWMGIINPSSGDTNYAQKFQGRVTMTRDTSISTAYMELSRLRSDDTAVYYCARDTGEYSYSPHGMDVWGQGTTVTVSS
VL: B1 VL
notes: Fab by papain digestion
B3: SB-40-20 Fab (Fab, V domains shown)
VH: B2 VH with Y32F, M34I, V35S, D57H, F64L, R72T, I76T, R85S, D89E
VL: B1 VL
notes: Fab by papain digestion
B4: SB-40-19 Fab (Fab, V domains shown)
VH: B2 VH with D57A, R72T, I76T, S84R, R85S
VL: B1 VL
notes: Fab by papain digestion
B5: SB-46 (antibody, V domains shown)
VH: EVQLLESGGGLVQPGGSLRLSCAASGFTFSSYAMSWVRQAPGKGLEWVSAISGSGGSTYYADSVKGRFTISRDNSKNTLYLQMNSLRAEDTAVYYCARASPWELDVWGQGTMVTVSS
VL: EIVLTQSPGTLSLSPGERATLSCRASQSVRSSYLAWYQQKPGQAPRLLIYGASSRATGIPDRFSGSGSGTDFTLTISRLEPEDFAVYYCQQLYSSPYTFGGGTKVEIK
notes: IgG
B6: SB-1-2 Fab (Fab, V domains shown)
VH: QVQLVESGGGVVQPGRSLRLSCAASGFTFGSFGMNWVRQAPGKGLEWVSAITASGGSTFYADSVKGRFTISRDNSKNTLYLQMNSLRAEDTAVYYCAKDFTEVVGWLGMDVWGQGTTVTVSS
VL: B5 VL with L4M, R30S, Q91L, Y93G, Y97R
notes: Fab by papain digestion
B7: SB-1-3 Fab (Fab, V domains shown)
VH: B6 VH with Q1E, V11L, Q13K, R16G, G30S, S31A, F32Y, A53S, G56R, F59Y
VL: B5 VL with L4M, R30S, Q91L, Y93G, Y97R
notes: Fab by papain digestion
B8: SB-48 (antibody, V domains shown)
VH: QVQLVESGGGVVQPGRSLRLSCAASGFTFSSYGMHWVRQAPGKGLEWVAVISYDGSNKYYADSVKGRFTISRDNSKNTLYLQMNSLRAEDTAVYYCARDGTIAAAGWPPEYFQHWGQGTLVTVSS
VL: DIQMTQSPSSVSASVGDRVTITCRASQGIDSWLAWYQQKPGKAPKLLIYAASSLQSGVPSRFSGSGSGTDFTLTISSLQPEDFATYYCQQASNFPITFGGGTKVEIK
notes: IgG
B9: SB-44 (antibody, V domains shown)
VH: EVQLVESGGGLVQPGGSLRLSCAASGFTVSSNYMSWVRQAPGKGLEWVSVIYSGGDTYYADSVKGRFTISRDNSKNTLYLQMNSLRAEDTAVYYCAREGSSFWSGSAVSYYGMDVWGQGTTVTVSS
VL: DIQMTQSPSTLSASVGDRVTITCRASQSIGSWLAWYQQKPGKAPKLLIYKASSLESGVPSRFSGSGSGTEFTLTISSLQPDDFATYYCQEYGSYRTFGGGTKVEIK
notes: IgG
B10: SB-47 (antibody, V domains shown)
VH: QLQLQESGPGLVKPSETLSLTCTVSGGSISSSSYAWGWIRQPPGKGLEWIGSIYYSGSTYYNPSLKSRVTISVDTSKNQFSLKLSSVTAADTAVYYCARDLGHYDYWSGSRDYYYGMDVWGQGTTVTVSS
VL: DIQMTQSPSSLSASVGDRVTITCQASQDISNYLNWYQQKPGKAPKLLIYDASNLETGVPSRFSGSGSGTDFTFTISSLQPEDIATYYCQQADYFPITFGGGTKVEIK
notes: IgG
B11: SB-43 (antibody, V domains shown)
VH: QVQLQESGPGLVKPSETLSLTCAVSGYSISSGYYWAWIRQPPGKGLEWIGSIYHSGSTYYNPSLKSRVTISVDTSKNQFSLKLSSVTAADTAVYYCARDAPGYPMLGMDVWGQGTTVSVSS
VL: EIVLTQSPATLSLSPGERATLSCRASQSVSSYLAWYQQKPGQAPRLLIYDASKRATGIPARFSGSGSGTDFTLTISSLEPEDFAVYYCQQRFDFPITFGGGTKVEIK
notes: IgG
B12: SB-42 (antibody, V domains shown)
VH: QVQLVQSGAEVKKPGASVKVSCKASGYTFTSYGISWVRQAPGQGLEWMGWISAYNGNTNYAQKLQGRVTMTTDTSTSTAYMELRSLRSDDTAVYYCARGPGHYYVAGMDVWGQGTTVTVSS
VL: EIVMTQSPATLSVSPGERATITCRASQSISSYLNWYQQKPGKAPKLLIYSASSLQSGVPSRFSGSGSGTDFTLTISSLQPEDFATYYCQQGDSFPITFGGGTKVEIK
notes: IgG
B13: SB-45 (antibody, V domains shown)
VH: QVQLQESGPGLVKPSETLSLTCAVSGYSISSGYYWAWIRQPPGKGLEWIGSIYHSGSTYYNPSLKSRVTISVDTSKNQFSLKLSSVTAADTAVYYCARDLSRGYAVSGMDVWGQGTTVTVSS
VL: VLTQSPGTLSLSPGERATLSCRASQSVSSSFLAWYQQKPGQAPRLLIYGASSRATGIPDRFSGSGSGTDFTLTISRLEPEDFAVYYCQQVVSVPTFGGGTKVEIK
notes: IgG

Legend:
[1] = molecular target: T4, human SIRPβ1 domain 1 (D1) Fc fusion (human, UniProt O00241 30-148); assay: Octet, Fab monovalent
T4 construct: Made in HEK293/T cells with a heterologous signal peptide; also called Human SIRPβ1 D1-Fc; Human SIRPβ1-Fc; not shown: C-terminal human IgG1 Fc
T4 sequence (O00241 30-148 limits assumed): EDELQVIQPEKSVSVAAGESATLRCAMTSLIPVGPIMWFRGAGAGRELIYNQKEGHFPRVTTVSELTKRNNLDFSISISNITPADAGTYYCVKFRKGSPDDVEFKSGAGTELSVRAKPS

mouse SIRPα on cells [2] = molecular target: T1, mouse SIRPα on cells; assay: flow cytometry;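 on FOB: antibodies tested at 1 µg/ml for 30 min on ice against receptor-expressing cells, detected with a PE-labelled secondary antibody, read as mean fluorescence intensity relative to background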
[3] = molecular target: T2, mouse SIRPβ1 on CHO cells; assay: flow cytometry;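 on FOB: antibodies tested at 1 µg/ml for 30 min on ice against receptor-expressing cells, detected with a PE-labelled secondary antibody, read as mean fluorescence intensity relative to background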
human SIRPα on cells [4] = molecular target: T5, human SIRPα on cells (human, UniProt P78324 31-504); assay: flow cytometry;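 on FOB: antibodies tested at 1 µg/ml for 30 min on ice against receptor-expressing cells, detected with a PE-labelled secondary antibody, read as mean fluorescence intensity relative to background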
T5 construct: Whole entry

mouse SIRPα D1-Fc = molecular target: T3, mouse SIRPα D1-Fc; assay: Octet
Procedure: Briefly, Octet affinity measurements were performed by loading IgGs on-line onto AHQ sensors. Sensors were equilibrated off-line in assay buffer for 30 min and then monitored on-line for 60 seconds for baseline establishment. For avid binding measurement, sensors with loaded IgGs were exposed to 100 nM antigen (human SIRPα domain 1 (D1) Fc fusion or SIRPβ1 domain 1 (D1) Fc fusion) for 3 min, and then transferred to assay buffer for 3 min for off-rate measurement. Additional avid binding was determined by loading biotinylated SIRPβ1 monomer on SA sensors and exposing to 100 nM IgG in solution. Monovalent binding measurements were obtained by loading human SIRPα- or SIRPβ1-Fc fusion antigens onto AHQ sensor, followed by exposure to 100 nM anti-SIRPβ1 antibody Fab. Additional monovalent measurements were made by loading biotinylated human SIRPα or SIRPβ1 monomer to SA sensor followed by exposure to 100 nM Fab in solution. Kinetics data were fit using a 1:1 binding model in the data analysis software provided by ForteBio (ForteBio Data Analysis Software 7.0).

[5] = molecular target: T6, human SIRPα domain 1 (D1) Fc fusion (human, UniProt P78324 32-149); assay: Octet
T6 construct: also called human SIRPα D1-Fc; Human SIRPα Fc; not shown: C-terminal human IgG1 Fc

[6] = molecular target: T4, human SIRPβ1 domain 1 (D1) Fc fusion; assay: Octet, IgG avid
mouse SIRPα on cells [7] = molecular target: T1, mouse SIRPα on cells; assay: flow cytometry; remark: listed apart in the source;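 on FOB: antibodies tested at 1 µg/ml for 30 min on ice against receptor-expressing cells, detected with a PE-labelled secondary antibody, read as mean fluorescence intensity relative to background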
Procedure: (§1) Initial characterization of anti-SIRPβ1 antibodies involved determining their ability to bind cell lines expressing human or mouse SIRPβ1. Cells were harvested, plated at 10⁶/ml in a 96-well plate, washed, and incubated in 100 μl FACS buffer containing 1 μg/ml anti-SIRPβ1 antibody for 0.5 hour on ice. Cells were then washed twice and incubated in 100 μl FACS buffer containing 0.5 μg/ml PE-conjugated secondary antibody for 30 minutes on ice. Cells were washed twice in cold FACS buffer and acquired on a BD FACS Canto. Data analysis and calculation of mean fluorescence intensity (MFI) values or 00 positive cells was performed with FlowJo (TreeStar) software version 10.0.7.
(§2) As a negative control, the anti-SIRPβ1 antibodies were also screened for surface binding to CHO cells overexpressing recombinant mouse SIRPβ31. […] Given the high sequence similarity between receptors of the SIRPβ family, anti-SIRPβ1 antibodies were also screened for cross-reactivity to human and mouse SIRPα.

[8] = molecular target: T2, mouse SIRPβ1 on CHO cells; assay: flow cytometry
Procedure: as §1, §2

[9] = molecular target: T7, human SIRPβ1 isoform 1 on cells (human, UniProt O00241 30-398); assay: flow cytometry
T7 construct: On CHO cells (low level), on BWZ/BW5147.G.1.4 cells (reporter cells co-express human DAP12) or on primary human myeloid cells; also called huSIRPβ1; BWZ-huSIRPβ1
T7 sequence (O00241 30-398): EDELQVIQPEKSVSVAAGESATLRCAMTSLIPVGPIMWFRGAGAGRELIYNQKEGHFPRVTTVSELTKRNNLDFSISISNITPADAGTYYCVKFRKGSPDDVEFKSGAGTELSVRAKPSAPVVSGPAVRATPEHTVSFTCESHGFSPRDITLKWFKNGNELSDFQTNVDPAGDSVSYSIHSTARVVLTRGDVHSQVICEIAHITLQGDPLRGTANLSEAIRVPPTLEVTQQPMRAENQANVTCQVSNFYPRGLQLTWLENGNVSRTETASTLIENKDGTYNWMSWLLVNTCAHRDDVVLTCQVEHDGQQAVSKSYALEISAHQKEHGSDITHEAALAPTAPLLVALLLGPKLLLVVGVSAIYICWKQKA
Procedure: as §1, §2

human SIRPα on cells [10] = molecular target: T5, human SIRPα on cells; assay: flow cytometry; remark: listed apart in the source
Procedure: as §1, §2

Binder	Kd [1]	binding result (mouse SIRPα on cells [2])	binding result [3]	binding result (human SIRPα on cells [4])	binding result (mouse SIRPα D1-Fc)	binding result [5]	Kd [6]	FOB (mouse SIRPα on cells [7])	FOB [8]	FOB [9]	FOB (human SIRPα on cells [10])
B1	18.1 nM										
B2	40.4 nM										
B3	9.41 nM										
B4	44.8 nM										
B5		no binding (tested: 1 ug/ml)	no binding (tested: 1 ug/ml)	no binding (tested: 1 ug/ml)	no binding (tested: 100 nM)	no binding (tested: 100 nM)	20 nM	1.4 fold over background	1.3 fold over background	5.3 fold over background	2.1 fold over background
B6	37.8 nM										
B7	45.4 nM										
B8		no binding (tested: 1 ug/ml)	no binding (tested: 1 ug/ml)	no binding (tested: 1 ug/ml)	no binding (tested: 100 nM)	no binding (tested: 100 nM)	27.7 nM	2.4 fold over background	1.1 fold over background	1.7 fold over background	2.1 fold over background
B9		no binding (tested: 1 ug/ml)	no binding (tested: 1 ug/ml)	no binding (tested: 1 ug/ml)	no binding (tested: 100 nM)	no binding (tested: 100 nM)	18.9 nM	1.2 fold over background	1.5 fold over background	2.8 fold over background	2.9 fold over background
B10		no binding (tested: 1 ug/ml)	no binding (tested: 1 ug/ml)	no binding (tested: 1 ug/ml)	no binding (tested: 100 nM)	no binding (tested: 100 nM)	14.4 nM	1.7 fold over background	1.3 fold over background	1.6 fold over background	2.1 fold over background
B11		no binding (tested: 1 ug/ml)	no binding (tested: 1 ug/ml)	no binding (tested: 1 ug/ml)	no binding (tested: 100 nM)	no binding (tested: 100 nM)	12.3 nM	1.6 fold over background	1.1 fold over background	2.8 fold over background	2.3 fold over background
B12		no binding (tested: 1 ug/ml)	no binding (tested: 1 ug/ml)	no binding (tested: 1 ug/ml)	no binding (tested: 100 nM)	no binding (tested: 100 nM)	12.3 nM	1.2 fold over background	1.2 fold over background	3.3 fold over background	2.7 fold over background
B13		no binding (tested: 1 ug/ml)	no binding (tested: 1 ug/ml)	no binding (tested: 1 ug/ml)	no binding (tested: 100 nM)	no binding (tested: 100 nM)	13.9 nM	1.2 fold over background	1.4 fold over background	8.5 fold over background	2.5 fold over background
